Source: PMC4218819
pKd: −log10 of the molar value.

What was measured:
Assay in all cases: EMSA
Conditions in all cases: 12 mM HEPES-KOH pH 7.6, 10 mM MgCl2, 200 mM NaCl, 4 mM Na2HPO4, 4 mM NaH2PO4, 0.4 mM EDTA, 1 mM DTT, 0.5% BSA, 10% glycerol, 200-fold poly(dI-dC), 1 nM DNA …
[1] = biological target: AraR WT (Bacillus subtilis) (UniProt P96711)
[2] = biological target: AraR Y5F Y5F (Bacillus subtilis) (UniProt P96711)
[3] = biological target: AraR E30A E30A (Bacillus subtilis) (UniProt P96711)
[4] = tested on: AraR E30A (Bacillus subtilis)
[5] = tested on: AraR WT (Bacillus subtilis)
[6] = tested on: AraR Y5F (Bacillus subtilis)

Substance	pKd [1]	pKd [2]	pKd [3]	Kd [4]	Kd [5]	Kd [6]
GATTGACAGTATAATAGTCAATTACTATAATAAAATTGGTCGTACAAATATTTATTTATAGGTTTATTTTCTATCATTAGTACGTATCTTTTGTATTTGAAAGCGTTTTATTTTATGAGAAAGGG (double strand) [ORA1 T6->G]	7.25	6.32	6.60	–	–	–
GATTGACAGTATAATAGTCAATTACTATAATAAAATTGTTCGTACAAAGATTTATTTATAGGTTTATTTTCTATCATTAGTACGTATCTTTTGTATTTGAAAGCGTTTTATTTTATGAGAAAGGG (double strand) [ORA1 T16->G]	6.96	6.45	6.46	–	–	–
GATTGACAGTATAATAGTCAATTACTATAATAAAATTGTTCGTACAAATATTTATTTATAGGTTTATTTTCTATCATTAGTACGTATCTTTTGTATTTGAAAGCGTTTTATTTTATGAGAAAGGG (double strand) [araABDLMNPQ-abfA promoter ORA1-ORA2 WT]	7.57	6.56	6.70	–	–	–
GATTGACAGTATAATAGTCAATTACTATAATAAAATTTTTCGTACAAATATTTATTTATAGGTTTATTTTCTATCATTAGTACGTATCTTTTGTATTTGAAAGCGTTTTATTTTATGAGAAAGGG (double strand) [ORA1 G5->T]	6.46	–	6.13	–	–	–
GATTGACAGTATAATAGTCAATTACTATAATAACATTGTTCGTACAAATATTTATTTATAGGTTTATTTTCTATCATTAGTACGTATCTTTTGTATTTGAAAGCGTTTTATTTTATGAGAAAGGG (double strand) [ORA1 A1->C]	7.13	6.48	6.17	–	–	–
ORA1 A1->C	–	–	–	67.5 10^-8 M	7.4 10^-8 M	33.1 10^-8 M
ORA1 G5->T	–	–	–	74.8 10^-8 M	34.5 10^-8 M	> 200 10^-8 M
ORA1 T6->G	–	–	–	25.4 10^-8 M	5.6 10^-8 M	47.6 10^-8 M
ORA1 T16->G	–	–	–	34.7 10^-8 M	11 10^-8 M	35.5 10^-8 M
araABDLMNPQ-abfA promoter ORA1-ORA2 WT	–	–	–	19.8 10^-8 M	2.7 10^-8 M	27.4 10^-8 M
